Results reported in US11667714 (MERUS N V, dated 2023).

Columns and labels:
[1] = target: T1, PD-L1 on activated human T cells (human, UniProt Q9NZQ7 19-290); test: FACS on anti-CD3 activated human T cells, goat anti-human IgG-PE, MFI [upper panel]
T1 construct: whole, on cells

[2] = target: PD-L1 on CHO cells expressing PD-L1 and a T cell activator (Promega) (UniProt Q9NZQ7 19-290); test: cell-based or functional assay
[3] = target: T2, PD-1 on activated human T cells (human, UniProt Q15116 25-288); test: FACS on anti-CD3 activated human T cells, goat anti-human IgG-PE, MFI [lower panel]
T2 construct: whole, on cells
T2 sequence (Q15116 25-288): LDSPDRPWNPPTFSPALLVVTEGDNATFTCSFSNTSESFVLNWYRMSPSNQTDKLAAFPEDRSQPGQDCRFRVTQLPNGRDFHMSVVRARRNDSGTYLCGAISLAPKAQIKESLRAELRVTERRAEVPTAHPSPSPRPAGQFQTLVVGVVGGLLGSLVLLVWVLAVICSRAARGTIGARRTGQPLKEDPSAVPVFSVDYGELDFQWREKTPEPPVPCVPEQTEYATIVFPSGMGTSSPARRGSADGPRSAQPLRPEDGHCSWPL

Chain of PD-L1 on CHO cells expressing PD-L1 and a T cell activator (Promega) (Q9NZQ7 19-290): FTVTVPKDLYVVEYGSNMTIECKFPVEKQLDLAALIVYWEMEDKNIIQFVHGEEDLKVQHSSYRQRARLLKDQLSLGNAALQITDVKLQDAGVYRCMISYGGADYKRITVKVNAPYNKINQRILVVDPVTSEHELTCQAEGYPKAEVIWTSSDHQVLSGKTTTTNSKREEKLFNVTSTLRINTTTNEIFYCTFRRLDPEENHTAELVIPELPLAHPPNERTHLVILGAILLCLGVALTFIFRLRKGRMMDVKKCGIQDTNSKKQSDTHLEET
T1 sequence (Q9NZQ7 19-290): as above

Binder | AUC (PD-1/PD-L1 blockade reporter assay, monovalent) [2] | further results
PG7689 (antibody, V domains shown, also called parental anti-PD-L1 IgG of MF6974xMF7689; MF7689 in bivalent IgG format) VH: QVQLVQSGAEVKKPGSSVRVSCKASGGTFNTYAINWVRQAPGQGLEWVGRIIPIFGTANYAQKFQGRVTISADKSTTTAYMELSSLRSEDTAVFYCAKDETGYSSSNFQHWGRGTLVTVSS VL: not shown | – | EC50 (read off the curve) [1]: ~0.04 µg/mL
MF5576xMF1337 PD-L1xTT bispecific IgG (PD-L1 monovalent) (bispecific antibody, V domains shown) VH 1: QVQLVQSGSELKKPGASVKVSCKASGYTFTSHAMNWVRQAPGQGLEWMGWINPNTGNPTYAQGFTGRFVFSLDTSVSTAYLQISSLKAEDTAVYYCAIDRGYMSNWVFAEYFPHWGQGTLVTVSS VL: not shown VH 2: not shown | 4.1 | –
MF5359xMF1337 PD-L1xTT bispecific IgG (PD-L1 monovalent) (bispecific antibody, V domains shown) VH 1: EVQLVQSGAEVKKPGSSVKVSCKASGDTFNTYSITWVRQAPGQGLEWMGSIVPIFGTINNAQKFQGRVTITADKSANTAYMELSSLRSEDTAVYYCARDNTMVRGVDYYYMDVWGKGTMVTVSS VH 2: not shown VL: not shown | 3.9 | –
MF6974 as a bivalent antibody (antibody, V domains shown, bivalent anti-PD-1 IgG; copies: 2 + 2) VH: EVQLVESGGDLVQPGGSLRLSCAASGFTFNSYAMSWVRQAPGKGLEWVSTISGGGANIYYADSVKGRFTISRDNSKSTLYLQMNSLRAEDTAVYFCASPYGSGYFDVWGQGTLVTVSS VL: not shown | – | EC50 (read off the curve) [3]: ~0.05 µg/mL
MF5557xMF1337 PD-L1xTT bispecific IgG (PD-L1 monovalent) (bispecific antibody, V domains shown) VH 1: QVQLVQSGAEVKRPGSSVKVSCKASGGTFNTYSITWVRQAPGQGLEWMGGIIPVFGTSKYAQKFQDRVTITADKSTNTAYMELSSLRSEDTAVYYCARDPSFSSSSGWFDPWGQGTLVTVSS VH 2: not shown VL: not shown | 3.4 | –
parental anti-PD-1 IgG PG7686 (antibody, V domains shown, bivalent monospecific IgG; also called MF7686 in bivalent IgG format; copies: 2 + 2) VH: QVQLVQSGAEVKKPGSSMKVSCKASGGSFSSAVISWVRQAPGQGLEWMGMIIPVFDTASYAKKFQGRVTITADKSTNTVYMELSRLRSEDAAVYYCARGTVEATLLFDYWGRGTLVTVSS VL: not shown | – | EC50 (read off the curve) [3]: ~0.04 µg/mL
MF5382xMF1337 PD-L1xTT bispecific IgG (PD-L1 monovalent) (bispecific antibody, V domains shown) VH 1: EVQLVQSGAEVKNPGSSVKVSCKATGGTFNTYGTNWVRQAPGQGLEWMGGIIPIFGTANYAQKFQGRVTITADKSTTTAYMEVSSLRSEDTAVYYCARGGADMGTLDYWGQGTLVTVSS VH 2: not shown VL: not shown | 2.9 | –
